2 substances from PMC6953194 can be followed below.

What all share (assay): SPR
The target in experiment [1] is VRC01 antibody derived from HEK cells (VRC01HEK) (human).
For experiment [2], the target named is VRC01 co‐expressed with human β1,4‐galactosyltransferase in the ΔXT/FT plant line (VRC01Gal) (human).
Experiment [3] concerns the target VRC01 expressed in the ΔXT/FT N. benthamiana plant line (VRC01ΔXF) (human).
Experiment [4] has as its target VRC01 expressed transiently in WT N. benthamiana (VRC01WT) (human).
Experiment [5] concerns the target plant‐produced VRC01 variant lacking Fc N‐glycans, N297S (VRC01aglyco) (human).

Broadly, the Kd is the constant that tells how readily two partners part at equilibrium. Higher therefore signals lower affinity.

Where only a bound is given, the exact number is not on record here.

Chain of recombinant human FcγRI ectodomain (P12314 16-292): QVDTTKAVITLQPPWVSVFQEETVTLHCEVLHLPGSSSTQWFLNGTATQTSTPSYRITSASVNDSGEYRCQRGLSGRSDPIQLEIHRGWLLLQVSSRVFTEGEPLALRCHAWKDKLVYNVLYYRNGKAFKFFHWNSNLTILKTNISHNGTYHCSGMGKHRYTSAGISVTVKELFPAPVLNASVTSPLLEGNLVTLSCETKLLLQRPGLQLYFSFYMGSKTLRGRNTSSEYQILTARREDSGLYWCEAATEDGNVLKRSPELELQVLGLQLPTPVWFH
Chain of VRC01 expressed transiently in WT N. benthamiana (VRC01WT) (human) (light, as listed by the source, chain 2 of 2, other chains not shown): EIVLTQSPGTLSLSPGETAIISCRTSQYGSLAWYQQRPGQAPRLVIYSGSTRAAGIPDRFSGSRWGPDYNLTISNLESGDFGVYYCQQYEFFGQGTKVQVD
Chain of VRC01 antibody derived from HEK cells (VRC01HEK) (human) (light, as listed by the source, chain 2 of 2, other chains not shown): as above
Chain of VRC01 co‐expressed with human β1,4‐galactosyltransferase in the ΔXT/FT plant line (VRC01Gal) (human) (light, as listed by the source, chain 2 of 2, other chains not shown): as above
Chain of VRC01 expressed in the ΔXT/FT N. benthamiana plant line (VRC01ΔXF) (human) (light, as listed by the source, chain 2 of 2, other chains not shown): as above
Chain of plant‐produced VRC01 variant lacking Fc N‐glycans, N297S (VRC01aglyco) (human) (light, as listed by the source, chain 2 of 2, other chains not shown): as above

With “recombinant human FcγRI ectodomain (from UniProt P12314 16-292) (receptor)”, the Kd is 0.098 nM in experiment [1]; 0.558 nM in experiment [2]; 0.247 nM in experiment [3]; 3 nM in experiment [4]; 71 nM in experiment [5]. Also, in experiment [4], the half‐life of the antibody–FcγRI complex worked out at 5 min.
For the substance “recombinant human FcγRIIb ectodomain (from UniProt P31994 43-217) (receptor)”, the Kd in experiment [1] was 3400 nM; in experiment [2], 3700 nM; in experiment [3], 2500 nM; in experiment [4] it was more than 7000 nM.
